Reference: publication doi:10.1101/2021.03.15.435484, “Functional development of a V3-specific broadly neutralizing antibody isolated from a case of HIV superinfection” (bioRxiv, 2021)

Target: BG505.SOSIP.664 Env trimer (heterologous clade A native-like trimer containing the N332 glycan) (HIV-1 clade A, isolate BG505 …, stabilised)
Test: cell-based or functional assay

B1: QA013.2 CDRH3 point mutant antibody D106V (mature VH D106V paired with the mature light chain) (antibody, V domains shown)
VH: DIRIAESGGGLVQPGESLRLACEIIELGFRRAWTTWVRQAPGKGLEWVADINEDGSEKKYGPSVTGRFTISRDNGKNLVFLQMNSLRVEDTATYYCAREAYHLVYVDRIPRGNWFDPWGPGTLVTVSS
VL: QSVLTQPPSVSGAPGQRVVISCTGSRSNIGAGYDVHWYQQSPGKVPRIIIYGSNSRSSGVPARFSGSKSGTSASLAITGLQAEDEADYYCQSYDTTLTASVFGGGTKVTVL
In the case of B1, the “average fold increase in neutralisation IC50 across all tested pseudoviruses relative to the mature bnAb (TZM-bl assay)” value is reported as 40 fold.
